According to patent US20260167721A1 (ABLEXIS, published 2026):

What was measured:
[1] = target: T1, recombinant human CD3 epsilon/delta heterodimer (human, UniProt P07766 23-126; P04234 22-105); experiment: Octet BLI, mAb on FAB2G sensor, hCD3 E/D 200-50 nM; R^2 0.96
T1 construct: Recombinant protein in solution (200-50 nM) in the Octet assay; also called hCD3 E/D; human CD3E/D
Experimental: Samples were evaluated by flow cytometry analysis against Jurkat and human Pan-T cells (FIG. 1B) as well as by Octet against recombinant human CD3 proteins to evaluate apparent affinities and binding off-rates (Table 6, infra).

[2] = target: T2, recombinant human CD3 epsilon/gamma heterodimer (human, UniProt P07766 23-126; P09693 23-116); experiment: Octet BLI, mAb on FAB2G sensor, hCD3 E/G 200-50 nM; R^2 0.34
T2 construct: Recombinant protein in solution (200-50 nM) in the Octet assay; also called hCD3 E/G

recombinant CD3 proteins [3] = target: T3, recombinant CD3 proteins (UniProt P07766 23-126); experiment: Octet BLI, recombinant CD3; Full R^2 0.984
T3 construct: elsewhere it uses human CD3 E/D and E/G heterodimers

recombinant CD3 proteins [4] = target: T3, recombinant CD3 proteins; experiment: Octet BLI, recombinant CD3; Full R^2 0.814*
recombinant CD3 proteins [5] = target: T3, recombinant CD3 proteins; experiment: Octet BLI, recombinant CD3; Full R^2 0.557*
recombinant CD3 proteins [6] = target: T3, recombinant CD3 proteins; experiment: Octet BLI, recombinant CD3; Full R^2 0.986
recombinant CD3 proteins [7] = target: T3, recombinant CD3 proteins; experiment: Octet BLI, recombinant CD3; Full R^2 0.985
recombinant CD3 proteins [8] = target: T3, recombinant CD3 proteins; experiment: Octet BLI, recombinant CD3; Full R^2 0.989

T2 sequence (P07766 23-126, chain 1 of 2): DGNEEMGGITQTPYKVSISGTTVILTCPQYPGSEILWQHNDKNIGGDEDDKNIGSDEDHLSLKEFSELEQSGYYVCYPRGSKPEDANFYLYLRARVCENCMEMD
T2 sequence (P09693 23-116, chain 2 of 2): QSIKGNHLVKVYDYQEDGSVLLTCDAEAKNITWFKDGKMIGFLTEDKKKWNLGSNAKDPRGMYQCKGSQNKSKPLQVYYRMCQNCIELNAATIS
T1 sequence (P07766 23-126, stated change not applied, chain 1 of 2): as the sequence (P07766 23-126, chain 1 of 2) above
T1 sequence (P04234 22-105, stated change not applied, chain 2 of 2): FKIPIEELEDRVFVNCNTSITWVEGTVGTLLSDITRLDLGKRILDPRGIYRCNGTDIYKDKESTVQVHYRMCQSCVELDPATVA
T3 sequence (P07766 23-126): as the sequence (P07766 23-126, chain 1 of 2) above

B1: ABL-CD3-13 (antibody, V domains shown)
VH: EVQLVESGGGLVQPGGSLRLSCAASGFTFSNYWMSWVRQAPGKGLEWVANIKEDGSEKYYVDSVKGRFTISRDNAKNSLYLQMNSLTAEDTSVYYCARERRTGYFDYWGQGTLVTVSS
VL: DIQMTQSPSTLSASVGDRVTITCRASQSISNWLAWYQQKPGKAPNLLIYKASSLESGVPSRFSGSGSGTEFTLTISSLQPDDFANYYCQQYKSYSWTFGQGTKVEIK
notes: Chimeric hybridoma mAb: human V, CH1, upper hinge; mouse middle hinge, CH2, CH3
B1 showed a Kd [1] of 23.4 nM, a Response [1] of 0.08 and a koff [1] of 0.000728 s⁻¹. The kon [1] was 31200 M⁻¹ s⁻¹, the Kd [2] was < 0.001 nM and the koff [2] was < 1e-07 s⁻¹. It also gave a kon [2] of 26700 M⁻¹ s⁻¹.

B2: CD3 × CD33-BspAb117 (bispecific antibody)
chain 1: NFMLTQPHSVSESPGKTVTISCTRSSGSIASNYVQWYQQRPGSSPTSVIYEDNQRPSGVPDRFSGSIDSSSNSASLTISGLKTEDEADYYCQSYDRSNRVFGCGTKLTVLGGGGSGGGGSGGGGSGGGGSEVQLVESGGGLVKPGGSLRLSCAASGLTFSTYSMNWVRQAPGKCLEWVSSISSSGSYVYYADSVKGRFTMSRDNAKNSLYLQMNSLRAEDTAVYYCARERRELLFDYWGQGTLVTVSSDKTHTCPPCPAPEFEGGPSVFLFPPKPKDTLMISRTPEVTCVVVDVSHEDPEVKFNWYVDGVEVHNAKTKPREEQYNSTYRVVSVLTVLHQDWLNGKEYKCKVSNKALPASIEKTISKAKGQPREPQVYTLPPCREEMTKNQVSLWCLVKGFYPSDIAVEWESNGQPENNYKTTPPVLDSDGSFFLYSKLTVDKSRWQQGNVFSCSVMHEALHNHYTQKSLSLSPGK
chain 2: EVQLVQSGAEVKKPGSSVKVSCKASGYTITDSNIHWVRQAPGQSLEWIGYIYPYNGGTDYNQKFKNRATLTVDNPTNTAYMELSSLRSEDTAFYYCVNGNPWLAYWGQGTLVTVSSASTKGPSVFPLAPSSKSTSGGTAALGCLVKDYFPEPVTVSWNSGALTSGVHTFPAVLQSSGLYSLSSVVTVPSSSLGTQTYICNVNHKPSNTKVDKRVEPKSCDKTHTCPPCPAPEFEGGPSVFLFPPKPKDTLMISRTPEVTCVVVDVSHEDPEVKFNWYVDGVEVHNAKTKPREEQYNSTYRVVSVLTVLHQDWLNGKEYKCKVSNKALPASIEKTISKAKGQPREPQVCTLPPSREEMTKNQVSLSCAVKGFYPSDIAVEWESNGQPENNYKTTPPVLDSDGSFFLVSKLTVDKSRWQQGNVFSCSVMHEALHNRFTQKSLSLSPGK
chain 3: DIQLTQSPSTLSASVGDRVTITCRASESLDNYGIRFLTWFQQKPGKAPKLLMYAASNQGSGVPSRFSGSGSGTEFTLTISSLQPDDFATYYCQQTKEVPWSFGQGTKVEVKRTVAAPSVFIFPPSDEQLKSGTASVVCLLNNFYPREAKVQWKVDNALQSGNSQESVTEQDSKDSTYSLSSTLTLSKADYEKHKVYACEVTHQGLSSPVTKSFNRGEC
In the case of B2, the Kd (recombinant CD3 proteins [3]) is reported as 16.6 nM, the koff (recombinant CD3 proteins [3]) is reported as 0.00554 s⁻¹ and the kon (recombinant CD3 proteins [3]) is reported as 335000 M⁻¹ s⁻¹.

B3: CD3 × CD33-BspAb121 (bispecific antibody)
chain 1: QTVVTQEPSLTVSPGGTVTLTCASSTGAVTSGYYPNWFQQKPGQAPRALIYSTSNKHSWTPARFSGSLLGGKAALTLSGVQPEDEAEYYCLLYYGGAYVFGCGTKVTVLGGGGSGGGGSGGGGSGGGGSEVQLVESGGGLVKPGGSLRLSCAASGFTFSSYSMNWVRQAPGKCLEWVSSISRSGTYIYYADSVKGRFTISRDNAKNSLYLQMNSLRAEDTAVYYCARERWELLYFDYWGQGTLVTVSSDKTHTCPPCPAPEFEGGPSVFLFPPKPKDTLMISRTPEVTCVVVDVSHEDPEVKFNWYVDGVEVHNAKTKPREEQYNSTYRVVSVLTVLHQDWLNGKEYKCKVSNKALPASIEKTISKAKGQPREPQVYTLPPCREEMTKNQVSLWCLVKGFYPSDIAVEWESNGQPENNYKTTPPVLDSDGSFFLYSKLTVDKSRWQQGNVFSCSVMHEALHNHYTQKSLSLSPGK
chain 2: B2 chain 2
chain 3: B2 chain 3
Work on B3 yielded a Kd (recombinant CD3 proteins [4]) of 1210 nM, a koff (recombinant CD3 proteins [4]) of 0.0216 s⁻¹ and a kon (recombinant CD3 proteins [4]) of 17900 M⁻¹ s⁻¹.

B4: CD3 × CD33-BspAb122 (bispecific antibody)
chain 1: QTVVTQEPSFSVSPGGTVTLTCGLSSGSVSTSYYPSWYQQTPGQAPRTLIYSTNTRSSGVPDRFSGSILGNKAALTITGAQADDESDYYCVLYMGSGIWVFGCGTKLTVLGGGGSGGGGSGGGGSGGGGSEVQLVESGGGLVKPGGSLRLSCAASGFTVSNYSMNWVRQAPGKCLEWVSSISRSSSYIYYADSVKGRFTISRDNAKNSLFLQMNSLRAEDTAVYYCARERWELLYFDYWGQGTLVTVSSDKTHTCPPCPAPEFEGGPSVFLFPPKPKDTLMISRTPEVTCVVVDVSHEDPEVKFNWYVDGVEVHNAKTKPREEQYNSTYRVVSVLTVLHQDWLNGKEYKCKVSNKALPASIEKTISKAKGQPREPQVYTLPPCREEMTKNQVSLWCLVKGFYPSDIAVEWESNGQPENNYKTTPPVLDSDGSFFLYSKLTVDKSRWQQGNVFSCSVMHEALHNHYTQKSLSLSPGK
chain 2: B2 chain 2
chain 3: B2 chain 3
In the case of B4, the Kd (recombinant CD3 proteins [5]) is reported as < 0.001 nM, the koff (recombinant CD3 proteins [5]) is reported as < 1e-07 s⁻¹ and the kon (recombinant CD3 proteins [5]) is reported as 15400 M⁻¹ s⁻¹.

B5: CD3 × CD33-BspAb119 (bispecific antibody)
chain 1: NFMLTQPHSVSESPGKTVTISCTRSSGSIASNYVQWYQQRPGSSPTTVIYEDNQRPSGVPDRFSGSIDSSSNSASLTISGLKTEDEADYYCQSYDSSNRVFGCGTKLTVLGGGGSGGGGSGGGGSGGGGSEVQVAESGGGLVKPGGSLRLSCAASGFTFSRYSMNWVRQAPGKCLEWVSSISSSGSYTYYADSVKGRFTISRDNAKNSLYLQMNSLRAEDTAVYYCVRERGKGAGMDVWGQGTTVTVSSDKTHTCPPCPAPEFEGGPSVFLFPPKPKDTLMISRTPEVTCVVVDVSHEDPEVKFNWYVDGVEVHNAKTKPREEQYNSTYRVVSVLTVLHQDWLNGKEYKCKVSNKALPASIEKTISKAKGQPREPQVYTLPPCREEMTKNQVSLWCLVKGFYPSDIAVEWESNGQPENNYKTTPPVLDSDGSFFLYSKLTVDKSRWQQGNVFSCSVMHEALHNHYTQKSLSLSPGK
chain 2: B2 chain 2
chain 3: B2 chain 3
B5 showed a Kd (recombinant CD3 proteins [6]) of 21.7 nM, a koff (recombinant CD3 proteins [6]) of 0.00688 s⁻¹ and a kon (recombinant CD3 proteins [6]) of 317000 M⁻¹ s⁻¹.

B6: CD3 × CD33-BspAb120 (bispecific antibody)
chain 1: NFMLTQPHSVSESPGKTVAISCTRSSGSIASNYVQWYQQRPGSSPTAVIYEDNQRPSGVPDRFSGSIDSSSNSAFLTISGLKTEDEADYYCQSYDSSNRVFGCGTKLTVLGGGGSGGGGSGGGGSGGGGSEVQLVESGGGLVKPGGSLRLSCAASGFTFSSYSMNWVRQAPGKCLEWVSSISRSSGYIFYADSVKGRFTISRDNAKNSLYLQMNSLRAEDTAVYYCVRERVGAGFDYWGQGTLVTVSSDKTHTCPPCPAPEFEGGPSVFLFPPKPKDTLMISRTPEVTCVVVDVSHEDPEVKFNWYVDGVEVHNAKTKPREEQYNSTYRVVSVLTVLHQDWLNGKEYKCKVSNKALPASIEKTISKAKGQPREPQVYTLPPCREEMTKNQVSLWCLVKGFYPSDIAVEWESNGQPENNYKTTPPVLDSDGSFFLYSKLTVDKSRWQQGNVFSCSVMHEALHNHYTQKSLSLSPGK
chain 2: B2 chain 2
chain 3: B2 chain 3
With B6 the Kd (recombinant CD3 proteins [7]) was 69 nM, the koff (recombinant CD3 proteins [7]) was 0.0189 s⁻¹ and the kon (recombinant CD3 proteins [7]) was 274000 M⁻¹ s⁻¹.

B7: CD3 × CD33-BspAb118 (bispecific antibody)
chain 1: FMLTQPHSVSESPGKTVTISCTRSSGSIASNYVQWYQQRPGSSPTTVIYEDNQRPSGVPDRFSGSIDSSSNSASLTISGLQTEDEADYYCQSYDSSNRVFGCGTKLTVLGGGGSGGGGSGGGGSGGGGSEVQLVESGGGLVKPGGSLRLSCVASGFTFSRYSMNWVRQAPGKCLEWVSSISSSSRYTYYADSLKGRFIMSRDNAKNSLFLQMNSLRAEDTAVYYCARNLYNALDYWGQGTLVTVSSDKTHTCPPCPAPEFEGGPSVFLFPPKPKDTLMISRTPEVTCVVVDVSHEDPEVKFNWYVDGVEVHNAKTKPREEQYNSTYRVVSVLTVLHQDWLNGKEYKCKVSNKALPASIEKTISKAKGQPREPQVYTLPPCREEMTKNQVSLWCLVKGFYPSDIAVEWESNGQPENNYKTTPPVLDSDGSFFLYSKLTVDKSRWQQGNVFSCSVMHEALHNHYTQKSLSLSPGK
chain 2: B2 chain 2
chain 3: B2 chain 3
B7 was tested, and the Kd (recombinant CD3 proteins [8]) was 1.91 nM, the koff (recombinant CD3 proteins [8]) was 0.000767 s⁻¹ and the kon (recombinant CD3 proteins [8]) was 403000 M⁻¹ s⁻¹.
